From PMC4939597, “Mechanism for insulin-like peptide 5 distinguishing the homologous relaxin family peptide receptor 3 and 4” (Scientific Reports, 2016)
No end group written: not given here.

How the values were obtained:
human RXFP3 [1] = target: T1, human RXFP3 (Homo sapiens, UniProt Q9NSD7); test: Receptor binding assay, competition with NanoLuc-conjugated R3/I5 tracer; details: for pIC50 RXFP3: HEK293T cells transiently overexpressing human RXFP3, 0.5 nM NanoLuc-conjugated R3/I5 tracer, 21 °C, 2 h, mean ± SE, n = 3, SEM
T1 construct: expressed in transfected cells; host or cells: HEK293T
T1 sequence (Q9NSD7 1-469): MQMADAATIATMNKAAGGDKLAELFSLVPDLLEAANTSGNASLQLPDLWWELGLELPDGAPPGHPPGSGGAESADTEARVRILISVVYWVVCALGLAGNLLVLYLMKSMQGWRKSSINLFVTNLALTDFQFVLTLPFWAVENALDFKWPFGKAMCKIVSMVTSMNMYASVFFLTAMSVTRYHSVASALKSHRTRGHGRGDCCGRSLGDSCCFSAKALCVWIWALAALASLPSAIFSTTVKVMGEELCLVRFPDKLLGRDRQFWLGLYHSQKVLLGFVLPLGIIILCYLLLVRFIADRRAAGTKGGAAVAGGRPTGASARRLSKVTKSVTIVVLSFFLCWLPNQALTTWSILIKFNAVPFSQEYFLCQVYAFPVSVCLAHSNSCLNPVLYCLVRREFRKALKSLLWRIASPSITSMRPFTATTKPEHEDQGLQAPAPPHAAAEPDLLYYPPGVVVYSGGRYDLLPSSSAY
Protocol: (§1) Figure 3 Receptor binding activities of the mature INSL5 and R3/I5 mutants towards RXFP3 and RXFP4. A NanoLuc-conjugated R3/I5 peptide was used as tracer and HEK293T cells transiently overexpressing human RXFP3 or human RXFP4 were used as receptor source. The tracer concentration used in these assays was 0.5 nM. The nonspecific binding was obtained by competition with 1.0 μM of relaxin-3. The measured data were expressed as mean ± SE (n = 3) and fitted to sigmoidal curves using the software SigmaPlot 10.0.
(§2) The receptor binding assays of the mature INSL5 and R3/I5 mutants were carried out using a NanoLuc-conjugated R3/I5 peptide as tracer and the human embryonic kidney (HEK) 293T cells transiently overexpressing human RXFP3 or human RXFP4 as receptor source. Nonspecific binding was obtained by competition with 1.0 μM of human relaxin-3. Briefly, HEK293T cells were transiently transfected with the expression construct of human RXFP3 or human RXFP4. Next day, the transfected cells were trypsinised, seeded into a 96-well plate, and continuously cultured for 24–36 h to confluence. To start binding assay, the medium was removed and the binding solution (serum-free DMEM medium plus 1% bovine serum albumin) containing 0.5 nM of the NanoLuc-conjugated R3/I5 tracer and varied concentrations of competitor was added (100 μl/well). After incubation at 21 °C for 2 h, the binding solution was removed and the cells were washed twice by ice-cold phosphate-buffered saline (200 μl/well for each wash). Thereafter, the cells were lysed by lysis solution (100 μl/well, from Promega, Madison, WI, USA) and the cell lysate was transferred to a white opaque 96-well plate (50 μl/well). After mixing with the freshly diluted substrate (50 μl/well), bioluminescence was immediately measured on a SpectraMax M5 plate reader (Molecular Devices, Sunnyvale, CA, USA) using the luminescence mode. The measured bioluminescence data were expressed as mean ± SE (n = 3) and fitted to sigmoidal curves using the SigmaPlot10.0 software.

human RXFP4 [2] = target: T2, human RXFP4 (Homo sapiens, UniProt Q8TDU9); test: as above; details: for pIC50 RXFP4: HEK293T cells transiently overexpressing human RXFP4, 0.5 nM NanoLuc-conjugated R3/I5 tracer, 21 °C, 2 h, mean ± SE, n = 3, SEM; for fold lower binding potency towards RXFP4 compared with wild-type INSL5: lower than wild-type INSL5
T2 construct: expressed in transfected cells; host or cells: HEK293T
T2 sequence (Q8TDU9 whole entry): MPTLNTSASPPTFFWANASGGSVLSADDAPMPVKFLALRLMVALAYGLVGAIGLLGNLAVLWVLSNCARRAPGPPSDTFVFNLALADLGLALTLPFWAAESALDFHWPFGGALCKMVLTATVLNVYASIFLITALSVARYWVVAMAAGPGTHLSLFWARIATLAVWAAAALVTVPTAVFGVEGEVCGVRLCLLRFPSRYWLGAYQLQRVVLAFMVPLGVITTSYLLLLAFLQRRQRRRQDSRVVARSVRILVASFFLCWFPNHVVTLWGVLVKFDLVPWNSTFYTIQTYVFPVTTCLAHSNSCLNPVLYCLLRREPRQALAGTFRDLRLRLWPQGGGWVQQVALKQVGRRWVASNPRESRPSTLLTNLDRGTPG
Protocol: as §1, §2

human RXFP3 [3] = target: T1, human RXFP3; test: Receptor activation assay, CRE-controlled NanoLuc reporter; format: cell-based; details: for activation potency towards RXFP3, result in words: CRE-controlled NanoLuc reporter, HEK293T cells, human RXFP3; for pEC50 RXFP3: HEK293T cells cotransfected with human RXFP3 and CRE-controlled NanoLuc reporter, 1.0 μM forskolin, 37 °C, 4 h, mean ± SE, n = 3, N.D., not detectable
human RXFP4 [4] = target: T2, human RXFP4; test: as above; format: cell-based; details: for pEC50 RXFP4: HEK293T cells cotransfected with human RXFP4 and CRE-controlled NanoLuc reporter, 1.0 μM forskolin, 37 °C, 4 h, mean ± SE, n = 3, SEM

Substance | pIC50 RXFP3 (human RXFP3 [1]) | pIC50 RXFP4 (human RXFP4 [2]) | activation potency towards RXFP3, result in words (human RXFP3 [3]) | pEC50 RXFP4 (human RXFP4 [4]) | fold lower binding potency towards RXFP4 compared with wild-type INSL5 (human RXFP4 [2]) | pEC50 RXFP3 (human RXFP3 [3]) | fold lower activation potency towards RXFP3 than its parent mutants (human RXFP3 [3]; lower than parent mutants [L(B9)R]INSL5 and [Y(B17)F]INSL5) | fold higher binding potency towards RXFP3 than wild-type INSL5 (human RXFP3 [1]; higher than wild-type INSL5) | pEC50 RXFP3 (human RXFP3 [3]; SEM) | fold lower binding potency towards RXFP3 compared with wild-type INSL5 (human RXFP3 [1]; lower than wild-type INSL5) | fold lower activation potency towards RXFP4 compared with INSL5 (human RXFP4 [4]; lower than wild-type INSL5) | fold lower binding affinity for RXFP3 than relaxin-3 (human RXFP3 [1]; lower than relaxin-3)
[L(B9)R]INSL5: recombinant mature two-chain INSL5 mutant (Insulin-like peptide INSL5 B … KESVRLCGREYIRTVIYICASSRW; Insulin-like peptide INSL5 A … QDLQTLCCTDGCSMTDLSALC; ends and bridges not checked; cysteine pairing not given here; UniProt Q9Y5Q6 23-46; Q9Y5Q6 115-135, looked up, variant L9R) | 7.87 ± 0.04 | 7.85 ± 0.03 |  | 9.87 ± 0.04 |  |  |  | ~ 4 fold | 7.21 ± 0.04 |  |  | 
[T(B14)A]INSL5: recombinant mature two-chain INSL5 mutant (Insulin-like peptide INSL5 B … KESVRLCGLEYIRAVIYICASSRW; Insulin-like peptide INSL5 A … QDLQTLCCTDGCSMTDLSALC; ends and bridges not checked; cysteine pairing not given here; UniProt Q9Y5Q6 23-46; Q9Y5Q6 115-135, looked up, variant T14A) | 7.06 ± 0.03 | 7.57 ± 0.05 | no detectable activation potency | 9.05 ± 0.04 |  |  |  |  |  |  |  | 
insulin-like peptide 5 (Insulin-like peptide INSL5 B … KESVRLCGLEYIRTVIYICASSRW; Insulin-like peptide INSL5 A … QDLQTLCCTDGCSMTDLSALC; UniProt Q9Y5Q6 23-46; Q9Y5Q6 115-135, looked up) [recombinant mature two-chain human INSL5, cognate agonist of RXFP4, reference compound] | 7.26 ± 0.05 | 7.75 ± 0.02 | no detectable activation potency | 9.36 ± 0.06 |  |  |  |  |  |  |  | ~ 27 fold

Further lines, results first:

pIC50 RXFP3 (human RXFP3 [1]) | pIC50 RXFP4 (human RXFP4 [2]) | activation potency towards RXFP3, result in words (human RXFP3 [3]) | pEC50 RXFP4 (human RXFP4 [4]) | fold lower binding potency towards RXFP4 compared with wild-type INSL5 (human RXFP4 [2]) | pEC50 RXFP3 (human RXFP3 [3]) | fold lower activation potency towards RXFP3 than its parent mutants (human RXFP3 [3]; lower than parent mutants [L(B9)R]INSL5 and [Y(B17)F]INSL5) | fold higher binding potency towards RXFP3 than wild-type INSL5 (human RXFP3 [1]; higher than wild-type INSL5) | pEC50 RXFP3 (human RXFP3 [3]; SEM) | fold lower binding potency towards RXFP3 compared with wild-type INSL5 (human RXFP3 [1]; lower than wild-type INSL5) | fold lower activation potency towards RXFP4 compared with INSL5 (human RXFP4 [4]; lower than wild-type INSL5) | fold lower binding affinity for RXFP3 than relaxin-3 (human RXFP3 [1]; lower than relaxin-3) | Substance
7.07 ± 0.04 | 7.43 ± 0.05 | no detectable activation potency | 9.31 ± 0.08 |  |  |  |  |  |  |  |  | [I(B18)T]INSL5: recombinant mature two-chain INSL5 mutant (Insulin-like peptide INSL5 B … KESVRLCGLEYIRTVIYTCASSRW; Insulin-like peptide INSL5 A … QDLQTLCCTDGCSMTDLSALC; ends and bridges not checked; cysteine pairing not given here; UniProt Q9Y5Q6 23-46; Q9Y5Q6 115-135, looked up, variant I18T)
8.17 ± 0.04 | 7.33 ± 0.03 |  | 9.20 ± 0.03 | ~ 3 fold | <6 | ~ 10 fold |  |  |  |  |  | [L(B9)R,Y(B17)F]INSL5: recombinant mature two-chain INSL5 mutant (Insulin-like peptide INSL5 B … KESVRLCGREYIRTVIFICASSRW; Insulin-like peptide INSL5 A … QDLQTLCCTDGCSMTDLSALC; ends and bridges not checked; cysteine pairing not given here; UniProt Q9Y5Q6 23-46; Q9Y5Q6 115-135, looked up, variant L9R Y17F)
6.77 ± 0.05 | 7.23 ± 0.03 |  | 8.40 ± 0.09 | ~ 3 fold |  |  |  | 6.83 ± 0.08 | ~ 3 fold | ~ 9 fold |  | [Y(B17)F]INSL5: recombinant mature two-chain INSL5 mutant (Insulin-like peptide INSL5 B … KESVRLCGLEYIRTVIFICASSRW; Insulin-like peptide INSL5 A … QDLQTLCCTDGCSMTDLSALC; ends and bridges not checked; cysteine pairing not given here; UniProt Q9Y5Q6 23-46; Q9Y5Q6 115-135, looked up, variant Y17F)
